According to doi:10.1101/2024.02.12.579961 (bioRxiv, 2024):

B1: MBP-tagged IAA19/MSG2, recombinant (natural protein, Arabidopsis thaliana, UniProt O24409 1-197, looked up)
chain: MEKEGLGLEITELRLGLPGRDVAEKMMKKRAFTEMNMTSSGSNSDQCESGVVSSGGDAEKVNDSPAAKSQVVGWPPVCSYRKKNSCKEASTTKVGLGYVKVSMDGVPYLRKMDLGSSQGYDDLAFALDKLFGFRGIGVALKDGDNCEYVTIYEDKDGDWMLAGDVPWGMFLESCKRLRIMKRSDATGFGLQPRGVDE
B2: MBP-tagged IAA3/SHY2 (wild type), recombinant (natural protein, Arabidopsis thaliana, UniProt Q38822 1-189, looked up)
chain: MDEFVNLKETELRLGLPGTDNVCEAKERVSCCNNNNKRVLSTDTEKEIESSSRKTETSPPRKAQIVGWPPVRSYRKNNIQSKKNESEHEGQGIYVKVSMDGAPYLRKIDLSCYKGYSELLKALEVMFKFSVGEYFERDGYKGSDFVPTYEDKDGDWMLIGDVPWEMFICTCKRLRIMKGSEAKGLGCGV

Molecular target: the molecule itself
Assay: non-reducing SDS-PAGE

Row | Protein | binding result
1 | B1 | binds
2 | B2 | binds
